Results taken from patent publication WO2005058967A2 (dated 2005).
Numbering of substitutions follows the chain as printed. Each block holds one molecule with its values, some of them ahead of it.

How the values were obtained:
[1] = target: insulin/IGF-I hybrid receptor isoform A (Hybrid-RsA) (UniProt P08069); experiment: displacement of 125I-IGF1 from immunocaptured Hybrid-RsA
[2] = target: T1, extracellular domain of human insulin-like growth factor-1 receptor (hIGF-IR) (human, UniProt P08069 31-935); experiment: ELISA on coated soluble IGF-IR, cos7 supernatants
T1 construct: extracellular domain; also called hIGF1-R; Human Insulin-Like Growth Factor I soluble Receptor (R & D Systems #391-GR)

[3] = target: T1, extracellular domain of human …; experiment: SPR (BIAcore X), antibody captured by anti-Fc on a CM5 chip, hIGF-IR extracellular domain as analyte at 12.5-200 nM, 25°C

IC50 [1]: < 50 nM
Molecule: monoclonal antibody 1H7

binding result [2]: binds
B1: humanized 7C10 VL 2 combined with humanized 7C10 VH 2 (antibody, human IgG1, V domains shown)
VH: QVQLQESGPGLVKPSETLSLTCTVSGYSITGGYLWNWIRQPPGKGLEWIGYISYDGTNNYKPSLKDRVTISRDTSKNQFSLKLSSVTAADTAVYYCARYGRVFFDYWGQGTLVTVSS
VL: DIVMTQSPLSLPVTPGEPASISCRSSQSIVHSNGNTYLQWYLQKPGQSPQLLIYKVSNRLYGVPDRFSGSGSGTDFTLKISRVEAEDVGVYYCFQGSHVPWTFGQGTKVEIK
notes: Human IgG1/kappa, cos7 supernatant; also called 7C10 hum 2 heavy chain with humanized 7C10 VL 2

Kd [3]: 0.86 nM
B2: A2CHM Mab (antibody, V domains shown)
VH: B1 VH with T30S, R72V
VL: B1 VL

binding result [2]: binds
B3: humanized 7C10 VL 2 combined with humanized 7C10 VH 3 (antibody, human IgG1, V domains shown)
VH: B1 VH with T30S, R72V
VL: B1 VL
notes: Human IgG1/kappa, cos7 supernatant; also called 7C10 hum 3 heavy chain with humanized 7C10 VL 2
